B1: rhG-CSF: recombinant human granulocyte colony-stimulating factor (Amgen) (protein, UniProt P09919 31-207, looked up)
Granulocyte …: TPLGPASSLPQSFLLKCLEQVRKIQGDGAALQEKLVSECATYKLCHPEELVLLGHSLGIPWAPLSSCPSQALQLAGCLSQLHSGLFLYQGLLQALEGISPELGPTLDTLQLDVADFATTIWQQMEELGMAPALQPTQGAMPAFASAFQRRAGGVLVASHLQSFLEVSYRVLRHLAQP

Key:
[1] = tested on: mesenchymal stem cells; assay: Mouse model of mobilization: MSC formation in culture of peripheral blood WBC from treated mice; format: in vivo; conditions: for Stromal cell formation in cultures of WBC: SP 10 μg/kg or rhG-CSF 250 ug/kg i.p. for 4 days, PB harvested on fifth day; for Stromal cell formation in cultures of WBC / MSC / adherent stromal cell formation after 5 to 7 days of culture: 35 mm wells; for MSC / adherent stromal cell formation after 5 to 7 days of culture / MSC foci after 10 days of culture: SP 10 μg/kg, i.p. 4 days; for MSC / adherent stromal cell formation after 5 to 7 days of culture: rhG-CSF 250 μg/kg or both; for MSC foci after 10 days of culture: rhG-CSF 250 μg/kg
Protocol: To evaluate the potential of different mobilization agents, a mouse model of mobilization was used. Groups of mice (n=5) were treated with cytokines or mobilization agents and peripheral blood harvested into heparin containing tubes. The blood was treated with ammonium chloride to lyse the red cells and the white cells plated in 6 well plates treated with gelatin and evaluated for MSC formation at various time points.
Mice were injected intraperitoneally with 250 ug/kg of rhG-CSF (Amgen Inc, Thousand Oaks, Calif.) or normal saline for 5 days and PB harvested on the fifth day. The white cells were plated in media from Stem Cell Technologies (Vancouver, Canada) for culture of mesenchymal stem cells with murine supplements.
Mice (groups of 5 mice per treatment arm) were injected intraperitoneally with 10 μg/kg of Substance P (Sigma-Aldrich, St Louis, Mo.) or with 250 ug/kg of rhG-CSF for 4 days and PB harvested on the fifth day. The white cells were plated in media from Stem Cell Technologies (Vancouver, Canada) for culture of mesenchymal stem cells with murine supplements.
Mice (groups of 5 mice per treatment arm) were injected intraperitoneally with 10 μg/kg of Substance P (Sigma-Aldrich, St Louis, Mo.), with 250 μg/kg of rhG-CSF, or the combination of 10 μg/kg SP plus 250 μg/kg rhG-CSF for 4 days and PB harvested on the fifth day. The white cells were plated in media from Stem Cell Technologies (Vancouver, Canada) for culture of mesenchymal stem cells with murine supplements.

[2] = tested on: GM-CFC; assay: Hematopoietic progenitor colony forming assay of WBC from treated mice; format: in vivo; conditions: for Number of GM-CFC (n = 3): median colony number per 200,000 cells plated, methylcellulose culture, 10 days of incubation, triplicate cultures; for Type of colonies formed in cultures of WBC: methylcellulose colony assay
Protocol: WBC from treated mice were also plated in standard hematopoietic progenitor colony forming assays. Colony formation from cultures of 200,000 cells per 35 mm petri dishes were scored at 10 days of culture.
The median colony number pre 200,000 cells plated is presented from 3 triplicate cultures containing 1 ml of methycellulose plus rmIL-3, rmGM-CSF, rrSCF and rhG-CSF.

[3] = tested on: peripheral blood WBC; assay: Peripheral blood WBC counts of treated mice; format: in vivo; conditions: 7 day treatment
Protocol: G-CSF mobilization increases the circulating WBC count in mice and humans with typical counts approximately 25,000 to 30,000 WBC/μl. The effects of the combination of SP+G-CSF on peripheral WBC in treated mice was evaluated.
The different effects on peripheral WBC count of mobilization agents used were established.

[4] = tested on: MSCs or MSC precursors; assay: Culture of rhG-CSF mobilized peripheral blood from normal donors under MSC conditions; format: in vivo; conditions: normal human donors mobilized with G-CSF, standard MSC culture
Protocol: Normal unmobilized PB and PB from normal donors mobilized with rhG-CSF was obtained and the potential of the MNCs to generate MSCs was evaluated. When placed in standard culture there was development of adherent cells that appeared like adipocyte cells and endothelial cells (FIG. 1).

[5] = tested on: peripheral blood WBC; conditions: mice and humans, general statement; cited from earlier work

| Molecule | Stromal cell formation in cultures of WBC [1] | MSC / adherent stromal cell formation after 5 to 7 days of culture [1] | MSC foci after 10 days of culture [1] | Blast like cells on cytospin slides of WBC ([1]; WBC from SP treated mice) | Number of GM-CFC (n = 3) [2] | Type of colonies formed in cultures of WBC [2] | Effect on peripheral blood WBC levels [3] | MSC formation from mobilized peripheral blood cells [4] | MSC formation from mobilized peripheral blood cells ([4]; listed as G-CSF) | Adherent cells in cultures of WBC ([1]; 250 ug/kg intraperitoneally for 5 days, PB harvested on the fifth day) | Typical circulating WBC count after mobilization [5] |
| --- | --- | --- | --- | --- | --- | --- | --- | --- | --- | --- | --- |
| Substance P (RPKPQQFFGLM; printed: Arg Pro Lys Pro Gln Gln Phe Phe Gly Leu Met) [SP, Sigma-Aldrich, reference compound] | generated adherent stromal cells after 5 to 7 days with several foci | a few adherent stromal cells | several MSC foci | increase in blast like cells | 5 | colonies containing both hematopoietic and MSC cells | no significant effect |  |  |  |  |
| B1 | no stromal cell formation evident | one area with MSC cells | one foci |  | 26 | Typical hematopoietic colonies |  | no evidence of MSC formation | fail to generate mesenchymal stem cells | failed to proliferate and resembled endothelial cells not MSCs | 25,000 to 30,000 WBC/μl |

Source: patent publication US20120225028A1, “COMPOSITIONS AND METHODS FOR MOBILIZATION OF STEM CELLS” (priority 2011, published 2012)
